Laboratory results published in patent publication US20220056425, “RNA PO[…] FOR […] OF MODIFIED RNA” (GUARDIAN THERAPEUTICS, LLC, published 2022).
Positions count from the first letter of the chain named.

B1: CT aptamer clone 10 (ssRNA)
RNA: GGGAGAGCAUUGCUCGUUAGUGUCGUCUCGAGUUGUGAUUACUCGUGGUCGUAAGCUAGUGACUCGGAUCAUCUAGG
B2: CT aptamer clone 3 (ssRNA)
RNA: GGGAGAGCAUUGCUCGUUAGUGUCGUCUUAAACUUCGUGUUUUUGGUCGUUGUAGCUAGUGACUCGGAUCAUCUAGG
B3: CT aptamer clone 4 (ssRNA)
RNA: B2 RNA with A30C, C33U, U34C, U35A, C36U, U38C, G39A, U42G, U53A
B4: W2.S1.1_R6F-1 (ssRNA)
RNA: GGGAGAGCAUUGCUCGUUAGUGGCGUUACAGCAGUUGCCACAAGGCACGUUUUAGCUAGUGACUCGGAUCAUCUAGG
modifications: 2'-OMe at all nucleotides
B5: W2.S1.1_R6P-1 (ssRNA)
RNA: GGGAGAGCAUUGCUCGUUAGUGGAGCCUAUGGUUGUUGUGUGCUCCUCGCGGGAGCUAGUGACUCGGAUCAUCUAGG
modifications: 2'-OMe at all nucleotides
B6: CT aptamer clone 7 (ssRNA)
RNA: GGGAGAGCAUUGCUCGUUAGUGUCGUCUUGACCUUUGCUGGUCAUGGUCGUAAAGCUAGUGACUCGGAUCAUCUAGG
B7: CT aptamer clone 11 (ssRNA)
RNA: GGGAGAGCAUUGCUCGUUAGUGUCGUCUCAUCGAAUGGUCGGUGUGGUCGUUAAGCUAGUGACUCGGAUCAUCUAGG
B8: CT aptamer clone 8 (ssRNA)
RNA: B7 RNA with C29A, A34G, A35U, G37U, G38U, U39C, G44U, A53G
B9: CT aptamer clone 5 (ssRNA)
RNA: GGGAGAGCAUUGCUCGUUAGUGUCGUCUCGCGAACGUUAAUCGCGUGGUCGUGAGCUAGUGACUCGGAUCAUCUAGG
B10: CT aptamer clone 2 (ssRNA)
RNA: GGGAGAGCAUUGCUCGUUAGUGUCGUCUUGGUAAUUCCCUUUCUGGUCGUUUAAGCUAGUGACUCGGAUCAUCUAGG
B11: CT aptamer clone 1 (ssRNA)
RNA: GGGAGAGCAUUGCUCGUUAGUGUCGUCUCGGAGUUUAUCUCCGUGGUCGUUGAAGCUAGUGACUCGGAUCAUCUAGG
B12: CT aptamer clone 6 (ssRNA)
RNA: B11 RNA with G31A, G33U, U34C, U35G, U36A, U38C, C39U, C41U, G52A
B13: CT aptamer clone 9 (ssRNA)
RNA: GGGAGAGCAUUGCUCGUUAGUGUCGUCUCGGGAUUUUUCCCGUGGUCGUUCAUAGCUAGUGACUCGGAUCAUCUAGG

Experiments:
[1] = target: Cholera toxin (holotoxin and/or B subunit) (UniProt P01555;P01555;P01556 P01555:19-212,P01555:213-258,P01556:22-124)
[2] = target: KRAS (UniProt P01116 P01116:1-189); assay: plate binding compared to BSA; only central region printed

| Binder | binding result [1] | binding result [2] |
| --- | --- | --- |
| B1 | binds |  |
| B2 | binds |  |
| B3 | binds |  |
| B4 |  | binds |
| B5 |  | binds |
| B6 | binds |  |
| B7 | binds |  |
| B8 | binds |  |
| B9 | binds |  |
| B10 | binds |  |
| B11 | binds |  |
| B12 | binds |  |
| B13 | binds |  |
